# Test results: US20260098095A1 (Hoffmann-La Roche, published 2026)
# Positions count from the first letter of the chain named.
# B1: Molecule A (bispecific antibody, V domains shown)
# VH 1: YVQLVESGGGLVKPGGSLRLSCAAPLPFTGLDMSWVRQAPGKGLEWVGSISPKGGSTYYNDNVLGRFTISRDNSKNTLYLQMNSLRAEDTAVYYCARDWGFFDLWGQGTLVTVSS
# VL 1: AIQMTQSPSSLSASVGDRVTITCRASQSISNYLAWYQQKPGKAPKLLIYDANAHENDVPSRFSGSGSGTDFTLTISSLQPEDFATYYCQQYSSHPYTFGQGTKLEIK
# VH 2: not shown
# VL 2: QAVVTQEPSLTVSPGGTVTLTCGSSTGAVTTSNYANWVQEKPGQAFRGLIGGTNKRAPGTPARFSGSLLGGKAALTLSGAQPEDEAEYYCALWYSNLWVFGGGTKLTVL
# B2: Molecule E (bispecific antibody, V domains shown)
# VH 1: not shown
# VL 1: SSELTQDPAVSVALGQTVRITCQGDSLRSYYASWYQQKPGQAPVLVIYGKNNRPSGIPDRFSGSSSGNTASLTITGAQAEDEADYYCNSRQSSYYHHIVFGGGTKLTVL
# VH 2: not shown
# VL 2: B1 VL 2
# B3: Molecule C (bispecific antibody, V domains shown)
# VH 1: TQQLVESGGGLVQPGGSLRLSCAASGFSFSFDTMSWVRQAPGKGLEWVGSISPSGGSTYYNDNVLGRFTISRDNSKNTLYLQMNSLRAEDTAVYYCARDHGYFDMWGQGTLVTVSS
# VL 1: B1 VL 1 with A1D, N31S, N52S, A53W, H54L, N56L, D57G, H94Y
# VH 2: not shown
# VL 2: B1 VL 2
# Key:
# Assay in all cases: cell-based or functional assay
# [1] = target: T1, HLA-A2/MAGE-A4 peptide MHC (pMHC) complex on cells (human)
# EDC3 = EDC3 (human)
# FBXO34 = FBXO34 (human)
# [2] = target: HLA-A2 with peptide MAGB6 on T2 cells (human)
# KDM1A = KDM1A (human)
# UBE2V2 = UBE2V2 (human)
# KEAP1 = KEAP1 (human)
# SLC45A1 = SLC45A1 (human)
# ARF1 = ARF1 (human)
# VPS13D = VPS13D (human)
# CRMP1 = CRMP1 (human)
# UNC80 = UNC80 (human)
# pfkA = pfkA (human)
# URB1 = URB1 (human)
# DPYSL4 = DPYSL4 (human)
# CCS = CCS (human)
# BNRF1 = BNRF1 (human)
# ARF3 = ARF3 (human)
# MTOR = MTOR (human)
# gutQ = gutQ (human)
# GAPDHS = GAPDHS (human)
# DPYSL3 = DPYSL3 (human)
# MAGEB2 = MAGEB2 (human)
# DYNC1H1 = DYNC1H1 (human)
# PKP1 = PKP1 (human)
# PIGG = PIGG (human)
# [3] = target: T1, HLA-A2/MAGE-A4 peptide MHC (pMHC) …; remark: listed apart in the source
# [4] = target: T1, HLA-A2/MAGE-A4 peptide MHC (pMHC) …; remark: listed apart in the source
# V2A = V2A (human)
# G1A = G1A (human)
# R6A = R6A (human)
# H8A = H8A (human)
# E7A = E7A (human)
# Y3A = Y3A (human)
# D4A = D4A (human)
# V10A = V10A (human)
# T9A = T9A (human)
# [5] = target: T1, HLA-A2/MAGE-A4 peptide MHC (pMHC) …; remark: listed apart in the source
# G5A = G5A (human)
# [6] = target: HLA-A2 with peptide MAGA10 on T2 cells (human)
binder,measurement,setting,value
B1,"EC50 [pM] 24 h, T-cell mediated lysis of MAGE-A4 peptide pulsed T2 cells",[1],1.2 pM
same,"% of MAGE-A4 signal, Jurkat-NFAT",EDC3,0.9%
same,"% of MAGE-A4 signal, Jurkat-NFAT",FBXO34,0.46%
same,"% of MAGE-A4 signal, Jurkat-NFAT; grey (>2%)",[2],22.4%
same,"% of MAGE-A4 signal, Jurkat-NFAT",KDM1A,0.5%
same,"% of MAGE-A4 signal, Jurkat-NFAT",UBE2V2,0.75%
same,"% of MAGE-A4 signal, Jurkat-NFAT",KEAP1,0.39%
same,"% of MAGE-A4 signal, Jurkat-NFAT",SLC45A1,0.39%
same,"% of MAGE-A4 signal, Jurkat-NFAT",ARF1,0.67%
same,"% of MAGE-A4 signal, Jurkat-NFAT",VPS13D,0.67%
same,"% of MAGE-A4 signal, Jurkat-NFAT",CRMP1,1.74%
same,"% of MAGE-A4 signal, Jurkat-NFAT",UNC80,0.48%
same,"% of MAGE-A4 signal, Jurkat-NFAT",pfkA,0.58%
same,"% of MAGE-A4 signal, Jurkat-NFAT; grey (>2%)",URB1,80.5%
same,"% of MAGE-A4 signal, Jurkat-NFAT",DPYSL4,1.68%
same,"% of MAGE-A4 signal, Jurkat-NFAT; grey (>2%)",CCS,3.06%
same,"% of MAGE-A4 signal, Jurkat-NFAT",BNRF1,0.47%
same,"% of MAGE-A4 signal, Jurkat-NFAT",ARF3,0.92%
same,"% of MAGE-A4 signal, Jurkat-NFAT",MTOR,0.41%
same,"% of MAGE-A4 signal, Jurkat-NFAT",gutQ,0.64%
same,"% of MAGE-A4 signal, Jurkat-NFAT",GAPDHS,0.91%
same,"% of MAGE-A4 signal, Jurkat-NFAT; grey (>2%)",DPYSL3,32.9%
same,"% of MAGE-A4 signal, Jurkat-NFAT",MAGEB2,0.83%
same,"% of MAGE-A4 signal, Jurkat-NFAT",DYNC1H1,0.4%
same,"% of MAGE-A4 signal, Jurkat-NFAT",PKP1,0.5%
same,"% of MAGE-A4 signal, Jurkat-NFAT",PIGG,0.7%
same,"EC50 [pM], T-cell mediated lysis of A-375 cells, 24 h",[3],1210 pM
same,"EC50 [pM], T-cell mediated lysis of C-33A cells, 24 h",[3],225 pM
same,"EC50 [pM], T-cell mediated lysis of IM-9 cells, 24 h",[3],43.4 pM
same,"EC50 [pM], T-cell mediated lysis of NCI-H1755 cells, 24 h",[3],9.4 pM
same,"EC50 [pM], T-cell mediated lysis of NCI-H2023 cells, 24 h",[3],2090 pM
same,"EC50 [pM], T-cell mediated lysis of UMUC-3 cells, 24 h",[3],775 pM
same,"EC50 [pM], activation of Jurkat-NFAT reporter cells (luminescence, 6 h) with MAGE-A4 peptide pulsed T2 cells",[4],30.3 pM
same,"EC50, Jurkat-NFAT activation",V2A,0.0184 nM
same,"EC50, Jurkat-NFAT activation",G1A,40.1 nM
same,"EC50, Jurkat-NFAT activation",R6A,40.1 nM
same,"EC50, Jurkat-NFAT activation",H8A,0.044 nM
same,"EC50, Jurkat-NFAT activation",E7A,0.1 nM
same,"EC50, Jurkat-NFAT activation",Y3A,5.27 nM
same,"EC50, Jurkat-NFAT activation",D4A,51.6 nM
same,"EC50, Jurkat-NFAT activation",V10A,0.029 nM
same,"EC50, Jurkat-NFAT activation",T9A,0.0383 nM
same,"EC50, Jurkat-NFAT activation",[5],0.0105 nM
same,"EC50, Jurkat-NFAT activation",G5A,0.0056 nM
B2,"EC50 [pM] 24 h, T-cell mediated lysis of MAGE-A4 peptide pulsed T2 cells",[1],32.7 pM
same,"% of MAGE-A4 signal, Jurkat-NFAT",EDC3,0.54%
same,"% of MAGE-A4 signal, Jurkat-NFAT; grey (>2%)",FBXO34,4.03%
same,"% of MAGE-A4 signal, Jurkat-NFAT; grey (>2%)",[2],110%
same,"% of MAGE-A4 signal, Jurkat-NFAT",KDM1A,0.34%
same,"% of MAGE-A4 signal, Jurkat-NFAT",UBE2V2,0.4%
same,"% of MAGE-A4 signal, Jurkat-NFAT",KEAP1,0.34%
same,"% of MAGE-A4 signal, Jurkat-NFAT",SLC45A1,0.38%
same,"% of MAGE-A4 signal, Jurkat-NFAT",ARF1,0.93%
same,"% of MAGE-A4 signal, Jurkat-NFAT; grey (>2%)",VPS13D,47%
same,"% of MAGE-A4 signal, Jurkat-NFAT",CRMP1,0.37%
same,"% of MAGE-A4 signal, Jurkat-NFAT",UNC80,0.49%
same,"% of MAGE-A4 signal, Jurkat-NFAT",pfkA,0.26%
same,"% of MAGE-A4 signal, Jurkat-NFAT",URB1,1.2%
same,"% of MAGE-A4 signal, Jurkat-NFAT",DPYSL4,0.48%
same,"% of MAGE-A4 signal, Jurkat-NFAT; grey (>2%)",CCS,38.6%
same,"% of MAGE-A4 signal, Jurkat-NFAT",BNRF1,0.45%
same,"% of MAGE-A4 signal, Jurkat-NFAT",ARF3,0.85%
same,"% of MAGE-A4 signal, Jurkat-NFAT",MTOR,0.29%
same,"% of MAGE-A4 signal, Jurkat-NFAT",gutQ,0.31%
same,"% of MAGE-A4 signal, Jurkat-NFAT",GAPDHS,0.39%
same,"% of MAGE-A4 signal, Jurkat-NFAT",DPYSL3,1.04%
same,"% of MAGE-A4 signal, Jurkat-NFAT; grey (>2%)",MAGEB2,108%
same,"% of MAGE-A4 signal, Jurkat-NFAT",DYNC1H1,0.17%
same,"% of MAGE-A4 signal, Jurkat-NFAT; grey (>2%)",[6],43.2%
same,"% of MAGE-A4 signal, Jurkat-NFAT",PKP1,0.43%
same,"% of MAGE-A4 signal, Jurkat-NFAT",PIGG,0.26%
same,"EC50 [pM], T-cell mediated lysis of C-33A cells, 24 h",[3],3980 pM
same,"EC50 [pM], T-cell mediated lysis of IM-9 cells, 24 h",[3],393 pM
same,"EC50 [pM], T-cell mediated lysis of NCI-H1755 cells, 24 h",[3],84.4 pM
same,"EC50 [pM], T-cell mediated lysis of UMUC-3 cells, 24 h",[3],~5800 pM
same,"EC50 [pM], activation of Jurkat-NFAT reporter cells (luminescence, 6 h) with MAGE-A4 peptide pulsed T2 cells",[4],877 pM
same,"EC50, Jurkat-NFAT activation",V2A,4.07 nM
same,"EC50, Jurkat-NFAT activation",G1A,2.72 nM
same,"EC50, Jurkat-NFAT activation",R6A,2.37 nM
same,"EC50, Jurkat-NFAT activation",H8A,1.23 nM
same,"EC50, Jurkat-NFAT activation",E7A,2.98 nM
same,"EC50, Jurkat-NFAT activation",Y3A,2.06 nM
same,"EC50, Jurkat-NFAT activation",D4A,22.3 nM
same,"EC50, Jurkat-NFAT activation",V10A,7.46 nM
same,"EC50, Jurkat-NFAT activation",T9A,4.26 nM
same,"EC50, Jurkat-NFAT activation",[5],1.62 nM
same,"EC50, Jurkat-NFAT activation",G5A,9.44 nM
B3,"EC50 [pM] 24 h, T-cell mediated lysis of MAGE-A4 peptide pulsed T2 cells",[1],121 pM
same,"% of MAGE-A4 signal, Jurkat-NFAT",EDC3,0.48%
same,"% of MAGE-A4 signal, Jurkat-NFAT",FBXO34,0.39%
same,"% of MAGE-A4 signal, Jurkat-NFAT",KDM1A,0.24%
same,"% of MAGE-A4 signal, Jurkat-NFAT",UBE2V2,0.52%
same,"% of MAGE-A4 signal, Jurkat-NFAT",KEAP1,0.51%
same,"% of MAGE-A4 signal, Jurkat-NFAT",SLC45A1,0.22%
same,"% of MAGE-A4 signal, Jurkat-NFAT",ARF1,0.23%
same,"% of MAGE-A4 signal, Jurkat-NFAT",VPS13D,0.39%
same,"% of MAGE-A4 signal, Jurkat-NFAT",CRMP1,0.29%
same,"% of MAGE-A4 signal, Jurkat-NFAT",UNC80,0.43%
same,"% of MAGE-A4 signal, Jurkat-NFAT",pfkA,0.4%
same,"% of MAGE-A4 signal, Jurkat-NFAT",URB1,0.45%
same,"% of MAGE-A4 signal, Jurkat-NFAT",DPYSL4,0.27%
same,"% of MAGE-A4 signal, Jurkat-NFAT",CCS,0.29%
same,"% of MAGE-A4 signal, Jurkat-NFAT",BNRF1,0.36%
same,"% of MAGE-A4 signal, Jurkat-NFAT",ARF3,0.49%
same,"% of MAGE-A4 signal, Jurkat-NFAT",MTOR,0.26%
same,"% of MAGE-A4 signal, Jurkat-NFAT",gutQ,0.36%
same,"% of MAGE-A4 signal, Jurkat-NFAT",GAPDHS,0.37%
same,"% of MAGE-A4 signal, Jurkat-NFAT",DPYSL3,0.35%
same,"% of MAGE-A4 signal, Jurkat-NFAT",MAGEB2,0.34%
same,"% of MAGE-A4 signal, Jurkat-NFAT",DYNC1H1,0.17%
same,"% of MAGE-A4 signal, Jurkat-NFAT",PKP1,0.49%
same,"% of MAGE-A4 signal, Jurkat-NFAT",PIGG,0.33%
same,"EC50 [pM], T-cell mediated lysis of IM-9 cells, 24 h",[3],2740 pM
same,"EC50 [pM], T-cell mediated lysis of NCI-H1755 cells, 24 h",[3],460 pM
same,"EC50 [pM], activation of Jurkat-NFAT reporter cells (luminescence, 6 h) with MAGE-A4 peptide pulsed T2 cells",[4],976 pM
same,"EC50, Jurkat-NFAT activation",V2A,0.687 nM
same,"EC50, Jurkat-NFAT activation",G1A,1.44 nM
same,"EC50, Jurkat-NFAT activation",R6A,4.34 nM
same,"EC50, Jurkat-NFAT activation",H8A,3.94 nM
same,"EC50, Jurkat-NFAT activation",E7A,1.22 nM
same,"EC50, Jurkat-NFAT activation",Y3A,0.626 nM
same,"EC50, Jurkat-NFAT activation",D4A,0.738 nM
same,"EC50, Jurkat-NFAT activation",V10A,13 nM
same,"EC50, Jurkat-NFAT activation",T9A,0.67 nM
same,"EC50, Jurkat-NFAT activation",[5],1.03 nM
same,"EC50, Jurkat-NFAT activation",G5A,16.8 nM
